Laboratory results reported in patent publication US20160228506A1, “Compositions and Formulations for Prevention and Reduction of Tumorigenesis, Cancer Cell Proliferation and Invasion, and Methods of Production and Use Thereof in Cancer Treatment” (PRONUTRIA, INC., priority 2013, published 2016).

B1: SEQID-00287: nutritive polypeptide (protein, listed as Saccharomyces cerevisiae)
chain: LVLGALLDTSHKFRNLDKDLCEKCAKCISMIGVLDVTKHEFKRTTYSENEVYDLNDSVQTIKFLIWVINDILV
modifications: source: /note="strain ATCC 204508 / S288c"
notes: nutritive polypeptide
B2: SEQID-00220: nutritive polypeptide (protein, listed as Bos taurus)
chain: DTKKKVDDDLGTIENLEEAKKKLLKDVEVLSQRLEEKALAYDKLEKTKTRLQQELDDLLVDLDHQ
B3: SEQID-00305: nutritive polypeptide (protein, listed as Bos taurus)
chain: MPHQYPALTPEQKKELCDIAHRIVAPGKGILAADESTGSIAKRLQSIGTENTEENRRFYRQLLLTADDRVNPCIGGVILFHETLYQKADDGRPFPQVIKAKGGVVGIKVDKGVVPLAGTNGETTTQGLDGLSERCAQYKKDGADFAKWRCVLKIGEHTPSSLAIMENANVLARYASICQQNGIVPIVEPEILPDGDHDLKRCQYVTEKVLAAVYKALSDHHIYLEGTLLKPNMVTPGHACTQKYSHEEIAMATVTALRRTVPPAVPGITFLSGGQSEEEASINLNAINKCPLLKPWALTFSYGRALQASALKAWGGKKENLKAAQEEYVKRALANSLACQGKYTPSGKAGAAASESLFISNHAY
B4: SEQID-00610: protein of the 168 nutritive polypeptide library (protein, listed as Saccharomyces cerevisiae)
chain: MVLEATVLVIDNSEYSRNGDFPRTRFEAQIDSVEFIFQAKRNSNPENTVGLISGAGANPRVLSTFTAEFGKILAGLHDTQIEGKLHMATALQIAQLTLKHRQNKVQHQRIVAFVCSPISDSRDELIRLAKTLKKNNVAVDIINFGEIEQNTELLDEFIAAVNNPQEETSHLLTVTPGPRLLYENIASSPIILEEGSSGMGAFGGSGGDSDANGTFMDFGVDPSMDPELAMALRLSMEEEQQRQERLRQQQQQQDQPEQSEQPEQHQDK
modifications: source: /note="strain ATCC 204508 / S288c"
notes: protein of the 168 nutritive polypeptide library
B5: SEQID-00102: nutritive polypeptide (protein, listed as Lactobacillus johnsonii)
chain: MTEEEIFNKIADMISERFSIDRDKITKDLNFQNDLDADSIDFVELVMDLEDTFGAEIPDDDAEKLQTVGEAVEYIKSHQN
B6: SEQID-00302: nutritive polypeptide (protein)
chain: MAKKTVANLSASELSGKKVLVRADFNVPLDNGSISDDTRIRAALPTIQDLTSKGAKVILSSHFGRPQGQVVESMRLTPVAARLSELLGKTVKKCDDCIGEEVAVAVGAMSDGDVLLLENVRFHAAEEKNDPEFAKQLASVADLYVNDAFGTAHRAHASTEGVTKYLSPCVAGYLIEKELQFLQGAIESPQRPLAAIIGGSKVSSKIGVIEALLDKCDKLLLGGGMIFTFYKARGLSVGNSLVEEDKLELAKSLEAKAKEKGVTMLLPTDVVLADKFAADADSQTVSVEAIPDGWMGLDIGPDSVKVFQEALGDCKTVLWNGPMGVFEFEKFAAGTRAIAQTLAELTSTGTTTIIGGGDSVAAVEQLNLGEKMSHISTGGGASLELLEGKQLPGIVALDDA
modifications: Arthrospira platensis C1
notes: nutritive polypeptide
B7: SEQID-00099: nutritive polypeptide (protein, listed as Thermosynechococcus elongatus)
chain: MNQSEILEKVKAIVADQLSVDPEKVVPEASFAEDLNADSLDSVELIMALEEEFGVEIPDEEAEKLKTVQDVLDFINNKVAA
B8: SEQID-00606: protein of the 168 nutritive polypeptide library (protein)
chain: MASEGDHHHHHHHHQDHDHHHHDHDHHHHHDGEGETNSWVGKDGKVYHSHDGLAPHSHEPIYSPGYFTRRAPPLLNRNFNERAFTVGIGGPVGTGKTALMLALCELLRENYSLAAVTNDIFTKEDGEFLVKHKALPEERIRAVETGGCPHAAIREDISINLGPLEELSNLFKADILLCESGGDNLAANFSRELADYIIYIIDVSGGDKIPRKGGPGITQADLLVINKTDLAPAIGADLAVMQRDALRMRDGGPFVFAQVKHKIGVEEIGNLVLQAWEAATGNKRH
modifications: Glycine max
notes: as for B4
B9: SEQID-00601: protein of the 168 nutritive polypeptide library (protein, listed as Agaricus bisporus)
chain: MTRSWEPGTQYNLGDVVEYNGDEYKIIQAHSSQSDWAPDRTPALWGKLPHRHHQQGQYQQQQECQPQQPQKTCYDYGKQEQAPQHSDSKEKKNWFGNITESQKQALEVGGGVALGAGLLGGAFAAWKHHQHKEEAHDSFEAWANAARSRAEEFRAKGPQGPATWVYNEGKHIPEQAILVGTEHNWNLYICRAYCDGGVQIGKASDVFKKGAVIGYKEDEHHLDKYEILLGDMRGLKWVQTGNSLDLASLGATPVEGGYENDHTRLYIARAFHKGAKHPGKVSERLDGAYIPYDGKEKCVKEYEVLCYL
modifications: source: /note="var. bisporus"; source: /note="strain H97 / ATCC MYA-4626 / FGSC 10389"
notes: as for B4
B10: SEQID-00098: nutritive polypeptide (protein, listed as Lactococcus lactis)
chain: MAVFEKVQDIIVDELGKEKEEVTLETSFEELDADSLDLFQIINDIEDEFDVEVDTEADMKTVADLVKYVENNK
B11: SEQID-00647: protein of the 168 nutritive polypeptide library (protein)
chain: MALSKIEEARQLNDDDLSEQILEIKKQLANLRLLKATGRLEKPHEIRHTRHRLSQLLTVERERQLPNQSPA
modifications: Arthrospira platensis C1
notes: as for B4
B12: SEQID-00598: nutritive polypeptide naturally produced in Flaxseed, recombinantly expressed in E. coli (protein, listed as Linum usitatissimum)
chain: MSRRCPGKNAWPELVGKSGNMAAATVERENRNVHAIVLKEGSAMTKDFRCDRVWVIVNDHGVVTSVPHIT
B13: SEQID-00546: protein of the 168 nutritive polypeptide library (protein, listed as Saccharomyces cerevisiae)
chain: MCSAGGIRRPIQIEEFKTAISGMSDMELAQIKTEIENSINHLQRSNARLGKYIAKLEGADDRLEADDSDDLENIDSGDLALYKDSVRENEIVLNNYNERVDALEQETVYRKTGHGKSKHEVEAKDNTNKGPDVDMDNSNVDVVTPNSIFI
modifications: source: /note="strain ATCC 204508 / S288c"
notes: as for B4

assay: pH solubility; format: physicochemical; conditions: lower pH
Method: pH Solubility. […] Protein was either lyophilized and then resuspended in buffer cocktail mixtures, or concentrated and then spiked into buffer cocktail mixtures at a final protein concentration of 5 to 30 mg/ml. As a control, protein was also dissolved in a solution of 8 M urea. Protein solutions were shaken for 10 min at room temperature. Turbidity of proteins was determined by measuring the absorbance of protein solutions at 650 nm. The protein solution was then centrifuged for 10 min at 1100×g to pellet undissolved or precipitated protein. The soluble protein fraction (supernatant) was sampled and protein concentration was measured by one or more of the following methods: Coomassie Plus Protein Assay (Pierce), Chip electrophoresis, gel electrophoresis, and/or absorbance at 280 nm. The pH range over which select proteins remained greater than 80% soluble as determined by Bradford and the A650 value are listed in Table E31C.

For B1, the “pH Range where Protein is >80% detected as Soluble and A650 <1 OD: Low” value was 6.2.

same assay, conditions: other pH

For B1, the “pH Range where Protein is >80% detected as Soluble and A650 <1 OD: Other” value was 2.6.

same assay, conditions: upper pH

In the case of B1, the “pH Range where Protein is >80% detected as Soluble and A650 <1 OD: High” value is reported as 9.1.

assay: Thermostability, temperature of aggregation (ProteoStat Thermal Shift); format: physicochemical; set-up: key to Tagg: temperature in °C; conditions: Table E31D; heated 25° C. to 95° C.
Method: The thermostability of proteins in a buffer cocktail of Citric Acid and Dibasic Sodium Phosphate over a pH range of 2.8 to 7.1 (preparation described above in Table E31B) was determined using the ProteoStat® Thermal Shift Stability Kit (Enzo Life Sciences) according to the manufacturer's standard protocol. Briefly, protein solutions (˜10 mg/ml) containing 1× ProteoStat TS Detection Reagent were heated from 25° C. to 95° C. at a rate of 0.5° C. per 30 sec using a real-time PCR (rtPCR) thermocycler (BioRad) equipped with a plate reader (SynergyMx, Biotek) while monitoring the fluorescence with a Texas Red filter.

In the case of B2, the “Tagg (pH 7.1)” value is reported as >95.
In the case of B5, the “Tagg (pH 7.1)” value is reported as >95.

Going from B3 to B4, the “Tagg (pH 7.1)” value rises from 48 to 54.5.

Going from B6 to B7, the “Tagg (pH 7.1)” value rises from 46 to 64.

With B8 the “Tagg (pH 7.1)” value was 95.

same assay, conditions: pH 2.8

Molecule B9 has a Tagg of 95.

same assay, conditions: pH 3.7

For B9, the Tagg was 95.

same assay, conditions: pH 4.3

With B9 the Tagg was 95^.

same assay, conditions: pH 6.5

For B9, the Tagg was 45.5.

same assay, conditions: pH 7.1

With B10 the Tagg was >95.

With B9 the Tagg was 48.5.

assay: SGF digest of 168 nutritive polypeptide library, intact protein by LC-MS/MS; format: in vitro ADME; conditions: 168 nutritive polypeptide library SGF digest, LC-MS/MS spectral counts
How it was run: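 A 168-protein IMAC-purified recombinant library was digested in simulated gastric fluid and the 0 and 10 min samples were profiled by SDS-PAGE fractionation, in-gel trypsin digestion and nanoLC-MS/MS. Percent intact protein at 10 min is the ratio of spectral counts (t10/t0), summed over the peak fraction and two flanking fractions. Filters were 1% FDR and at least two unique peptides.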

First: B11
Second: B12
The “% Intact Protein at 10 min” value of the first is lower: 12% for the first, 24.3% for the second.

Going from B4 to B13, the “% Intact Protein at 10 min” value falls from 3.3% to 0%.

Compared with B9, B8 is lower in “% Intact Protein at 10 min” value: 1.1% for the first, 0% for the second.

same assay, conditions: 168 nutritive polypeptide library, LC-MS/MS

First: B11
Second: B12
The “% Remaining at 10 min” value of the first is lower: 12% for the first, 24.3% for the second.

First: B4
Second: B9
The “% Remaining at 10 min” value of the first is higher: 3.3% for the first, 1.1% for the second.

With B8 the “% Remaining at 10 min” value was 0%.

assay: Intact half-life during simulated gastric fluid (SGF) digestion; conditions: SGF pH 1.5, pepsin:polypeptide 1:20 w/w, 37° C.; intact protein

Going from B10 to B11, the “SGF Half-life (t½)” value falls from 0.4 min to 0.2 min (2-fold).

Going from B2 to B3, the “SGF Half-life (t½)” value falls from 0.5 min to 0.2 min (2.5-fold).

B12 and B4 are within 1.5-fold of each other in “SGF Half-life (t½)” value: 0.5 min for the first, 0.4 min for the second.

Going from B5 to B6, the “SGF Half-life (t½)” value falls from 0.6 min to 0.2 min (3-fold).

Compared with B1, B7 is 3-fold lower in “SGF Half-life (t½)” value: 3 min for the first, 1 min for the second.

B9 and B8 are within 1.5-fold of each other in “SGF Half-life (t½)” value: 0.2 min for the first, 0.3 min for the second.

With B13 the “SGF Half-life (t½)” value was <10 min.

same assay, conditions: purified proteins, chip electrophoresis

First: B11
Second: B12
The “Half-life” value of the first is 2.5-fold lower: 0.2 min for the first, 0.5 min for the second.

Compared with B4, B9 is 2-fold lower in “Half-life” value: 0.4 min for the first, 0.2 min for the second.

In the case of B8, the “Half-life” value is reported as 0.3 min.
